The test system of the series is NheI restriction endonuclease (R.NheI) (Neisseria mucosa heidelbergensis). Briefly: cleavage_in_vitro. Conditions: cell extract of clones #1 and #9; AvaI-linearized pBR322 cleaved into 1196 and 3165 bp fragments.

The sequence “GCTAGC (double strand) [NheI site in AvaI-linearized pBR322]” came in with an activity (units per gram wet cells) of 1e+07.

Values taken from patent US6387681.
